For the data set, the system named is MS2 coat protein. Briefly: apparent KD of MS2 coat protein; designed switch direction (-1 OFF switch, 1 ON switch): -1; higher = weaker reporter binding. The method, boiled down: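 On Illumina chips, designed RNA switches with common flanks were made by stalled E. coli RNA polymerase. Titrations with SNAP-549-labelled MS2 coat protein, doubling from 0.7 or 1.5 nM to 3 µM, were done with no input, with 200 uM small-molecule ligand, or with an oligonucleotide input. Apparent KD is the median per design over clusters, from curve fits of normalised cluster fluorescence.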

Setting [1] is: input ligand: microRNA oligo, concentration not stated.
The mark [2] stands for this setting: Eterna round: R95, input ligand: microRNA oligo, concentration not stated.
Setting [3] is: Eterna round: R95, input ligand: FMN 200 uM.
The mark [4] stands for this setting: Eterna round: R95, input ligand: none.

Take “GUUGUUUAUGUAGGAUAUGCCUGGCGUGCCUUCGCAGAAGGACAUGAGGAUCACCCAUGUAUUGCGGUCUGCGUUCAGAUCGCU [salish99_ExNG1_r4_023] (Eterna round: R96, puzzle: Exclusion NG 1)”: the “apparent KD of MS2 coat protein” value reads like this: (input ligand: FMN 200 uM) 49.8 nM; under setting [1], 38.8 nM; (input ligand: none) 52.7 nM.
Take “CCAAGCUUAUUCAUUAACCACAUGAGGAUCACCCAUGUAUAGGCAAUUAUGACUGGGCUCUGUGGUGCUCGUCUUAU [Sensor-V1 #27] (Eterna round: R97, puzzle: Sensor, turn-off variant 1)”: the “apparent KD of MS2 coat protein” value reads like this: (input ligand: FMN 200 uM) 146 nM; (input ligand: none) 143 nM.
In the case of “AAAAUUGUAGGAUAUUAGGCAGACAACAUGAGGAUCACCCAUGUCCGUGAUCUUAGGCACUGAGAAGGAUAAGCCU [Eternabot (Original) Solution 23] (Eterna round: R97, puzzle: Exclusion 5)”, the “apparent KD of MS2 coat protein” value by setting is: (input ligand: FMN 200 uM) 147 nM; (input ligand: none) 159 nM.
As for “UUCUUGGCAGGAUAUGCUUUUUUAGACAUGAGGAUCACCCAUGUGUUUAUUUUUUUUUUUGCAGAAGGGCCUUAAU [JR_E5_Sub043] (puzzle: Exclusion 5)”, under setting [2], the “apparent KD of MS2 coat protein” value was found to be 26.9 nM.
In the case of “CGUGACUCAGGAUAUCUAUAAUAUCACAUGAGGAUCACCCAUGUCCAGCGAAAGCUGGAGAGAGAAGGGAGUCACG [Fiskers Ex 5 - 36] (puzzle: Exclusion 5)”, the “apparent KD of MS2 coat protein” value amounted to 67.7 nM under setting [3], 67.3 nM under setting [2] and 61.5 nM under setting [4].
With “GCUGGUCGAGGAUAUACAUGAGGAUCACCCAUGUAGAUCAACCAGCGAUAGCUGGAAUGUAGAAGGUGACCAGC [E3/5-B1] (Eterna round: R97, puzzle: Exclusion 3)”, the “apparent KD of MS2 coat protein” value (input ligand: FMN 200 uM) came to 21.9 nM and the “apparent KD of MS2 coat protein” value (input ligand: none) turned out to be 15.9 nM.
For “AAUAAGCAAGGAUAUACGACGAAAAGCGUCAGUGGGCGAUGACAUGAGGAUCACCCAUGUAGAAGGUGCACAUC [Isragela] (puzzle: Exclusion 2)”, the “apparent KD of MS2 coat protein” value under setting [3] was determined as 314 nM, the “apparent KD of MS2 coat protein” value under setting [2] is 125 nM and the “apparent KD of MS2 coat protein” value under setting [4] is 203 nM.
Regarding “UUGUUAUAUGUAGGAUAUGCAUAUUAUUAUUAUGCAGAAGGACAUGAGGAUCACCCAUGUAUAUUAUUAUUAUAUAUUAUAUAU [Title] (Eterna round: R96, puzzle: Exclusion NG 1)”, the “apparent KD of MS2 coat protein” value under setting [1] was 22.4 nM.
Regarding “UCCGGACAUGAGGAUCACCCAUGUUAGGAUAUCUGAGGUGUGCCAGGAUCCUGGGCCCAGAGAAGGAAUAUGGC [Eternabot (L2) Solution 28] (Eterna round: R97, puzzle: Exclusion 1)”, the “apparent KD of MS2 coat protein” value amounted to 21.7 nM (input ligand: FMN 200 uM) and 19.8 nM (input ligand: none).
For “GAGAGAGCCAUAGGAUAUGCCCGCCCGCUUGCGGCAGAAGGAUGUUGACAUGAGGAUCACCCAUGUGGAUCGCCCAUGUUUGUG [All by luck] (Eterna round: R96, puzzle: Exclusion NG 1)”, the “apparent KD of MS2 coat protein” value is, setting by setting: (input ligand: FMN 200 uM) 604 nM; under setting [1], 191 nM; (input ligand: none) 286 nM.
Turning to “AAUUUACAUGAGGAUCACCCAUGUGAGGAUAUGAUACUAUGUACUUCGGUACAUAGUAUCAGAAGGCAUGUGGG [Ex1-3: 93] (puzzle: Exclusion 1)”, the “apparent KD of MS2 coat protein” value under setting [2] turned out to be 19.1 nM.
Regarding “GUCAUACAUGAGGAUCACCCAUGUAAGGAUAUGCUAGCGGUCGGAAGAAUGACUGCUAGCAGAAGGUACAUGAU [Mat - Mod of JL D83] (puzzle: Exclusion 1)”, the “apparent KD of MS2 coat protein” value under setting [2] stood at 62.5 nM.
With “GGGUGACAUGAGGAUCACCCAUGUCAGGAUAUGAUUCUGCUUGGGAAACCGAGUAGAAUCAGAAGGGACAUCCC (Eterna round: R97, puzzle: Exclusion 1)”, the “apparent KD of MS2 coat protein” value reads like this: (input ligand: FMN 200 uM) 324 nM; (input ligand: none) 54.3 nM.
With “AUCGUGGCUCAGGAUAUCAGCCCUGUGGAGUUCUGAGAAGGGAGCACAUGAGGAUCACCCAUGUGAAAGGGUAC [Esdienar] (puzzle: Exclusion 6)”, the “apparent KD of MS2 coat protein” value reads like this: under setting [3], 148 nM; under setting [2], 45.6 nM; under setting [4], 40.8 nM.
Regarding “UUGUUAUGUGUAGGAUAUGCGUAUUAUUAUUAUGCAGAAGGACAUGAGGAUCACCCAUGUGUAUUGUUAUUAUAUAUUAUAUAU [Title] (Eterna round: R96, puzzle: Exclusion NG 1)”, the “apparent KD of MS2 coat protein” value was found to be 32.1 nM (input ligand: FMN 200 uM), 16 nM under setting [1] and 21.9 nM (input ligand: none).
For “UCGUUUCGUGUAGGAUAUUGGCCUUCUCUGGGUCGAGAAGGACAUGAGGAUCACCCAUGUAUGUUAUUAUCACGCGUGGCGCAU [Design 83] (Eterna round: R96, puzzle: Exclusion NG 1)”, the “apparent KD of MS2 coat protein” value came to 35.3 nM (input ligand: FMN 200 uM), 15.8 nM under setting [1] and 28.2 nM (input ligand: none).
As for “CUCCGGCGUGUAGGAUAUGGUUCCGUUUCGGUUCCAGAAGGACAUGAGGAUCACCCAUGUACCUGUCGUCGGUCGUCACCGGGC [salish99_ExNG1_r04_216] (Eterna round: R96, puzzle: Exclusion NG 1)”, the “apparent KD of MS2 coat protein” value is 12.4 nM (input ligand: FMN 200 uM), 13.2 nM under setting [1] and 16.4 nM (input ligand: none).
Turning to “AAAAGAUGAGGAUAUAUAUGGAAUCCAAGGCAUGUGCUCUCACAUGAGGAUCACCCAUGUAGAAGGCAUCUGCC [Laxetera] (puzzle: Exclusion 2)”, under setting [2], the “apparent KD of MS2 coat protein” value was 9.79 nM.
On to “ACUGUGUAAGGAUAUGUGAUACACUGCUAUUUAGGUGAGUCACAGAAGGUACAUGAGGAUCACCCAUGUCCGGG [Eternabot (L2) Solution 32] (Eterna round: R97, puzzle: Exclusion 4)”, for which the “apparent KD of MS2 coat protein” value was determined as 222 nM (input ligand: FMN 200 uM) and 172 nM (input ligand: none).
With “AUUAGUAAUAAGGAUAUCACUAGCUUCGGCUAGUGAGAAGGUAUUACAUGAGGAUCACCCAUGUGAUUAAUUAA [E6/5-A1] (Eterna round: R97, puzzle: Exclusion 6)”, the “apparent KD of MS2 coat protein” value by setting is: (input ligand: FMN 200 uM) 446 nM; (input ligand: none) 75.3 nM.
The matching figures for “GAUCAUGCAGGAUAUACAGUUUCCAUGAAAACAUGGAACUCACAUGAGGAUCACCCAUGUAGAAGGGCAUGAUC [Omei Ex2 A26] (Eterna round: R97, puzzle: Exclusion 2)”: 25.9 nM and 16.2 nM.
In the case of “UUUCUUAAGUGGUCGCUUCACAUGAGGAUCACCCAUGUCGCCUCUAUGGCAUUAAAUACGAGCUUUUUGCUUGAAUU [Eternabot (L1) Solution 14] (Eterna round: R97, puzzle: Sensor, turn-off variant 1)”, the “apparent KD of MS2 coat protein” value stood at 312 nM (input ligand: FMN 200 uM) and 385 nM (input ligand: none).
For “ACAUGAGGAUCACCCAUGUCCGUCUGAUCUGUCUCGGCUGUCGAGGAUAUAGCCCGGUAUCCGCGCUAGAAGGUGGGAGUCGGC [Aenatbe mod 99] (Eterna round: R96, puzzle: Exclusion NG 3)”, the “apparent KD of MS2 coat protein” value is 29.8 nM (input ligand: FMN 200 uM), 25.3 nM under setting [1] and 35.7 nM (input ligand: none).
Turning to “AGUAACUAUCACGAAAGUGAUAGUUACACAAGCAGUGAAACAUGAGGAUCACCCAUGUCCUCAUAUGCUCGUCUUAU [Sensor 3 - 30] (puzzle: Sensor v3, turn-off variant 2)”, the “apparent KD of MS2 coat protein” value reads like this: under setting [3], 119 nM; under setting [2], 1280 nM; under setting [4], 114 nM.

For the origin of these results see the supplement of paper PMC9170038.
